Article PMC10470531, “RecJ3/4-aRNase J form a Ubl-associated nuclease complex functioning in survival against DNA damage in Haloferax volcanii” (mBio, 2023)

Key:
[1] = target: aRNase J-StrepII (H. volcanii) (UniProt D4GW49); assay: affinity purification with mass spectrometry; tandem affinity purification (HisTrap, then Strep-Tactin) of His6-RecJ3 and aRNase J-StrepII from H. volcanii HJ02-pJAM4252 against the empty vector; 2 M NaCl buffers; LC-MS/MS of the liquid fractions and AQUA-based MS/MS (SRM with heavy peptides) for the stoichiometry
[2] = target: His6-RecJ3 (H. volcanii) (UniProt D4GVJ5); assay: as above
Chain of His6-RecJ3 (H. volcanii) (D4GVJ5 entry or part of it): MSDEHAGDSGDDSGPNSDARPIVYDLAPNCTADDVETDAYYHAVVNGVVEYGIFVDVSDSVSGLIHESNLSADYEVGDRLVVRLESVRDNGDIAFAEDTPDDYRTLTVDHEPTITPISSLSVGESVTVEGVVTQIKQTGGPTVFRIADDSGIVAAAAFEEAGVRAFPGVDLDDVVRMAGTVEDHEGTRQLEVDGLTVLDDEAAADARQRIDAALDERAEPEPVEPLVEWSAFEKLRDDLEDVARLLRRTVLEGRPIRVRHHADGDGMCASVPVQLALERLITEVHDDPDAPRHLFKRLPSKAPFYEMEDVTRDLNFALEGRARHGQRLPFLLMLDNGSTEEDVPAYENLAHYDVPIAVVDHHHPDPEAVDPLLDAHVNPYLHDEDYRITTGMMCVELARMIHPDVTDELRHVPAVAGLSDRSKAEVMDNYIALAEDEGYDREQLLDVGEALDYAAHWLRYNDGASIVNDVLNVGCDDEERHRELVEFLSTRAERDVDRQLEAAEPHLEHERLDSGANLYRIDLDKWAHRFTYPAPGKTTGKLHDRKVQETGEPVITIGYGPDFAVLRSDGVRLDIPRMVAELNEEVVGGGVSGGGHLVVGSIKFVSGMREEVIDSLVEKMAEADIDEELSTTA

[3] = target: His6-RecJ3 (H. volcanii) (UniProt D4GVJ5); assay: SEC; HisTrap-bound, Strep-Tactin flow-through fractions from H. volcanii HJ07; Superdex 200 Increase 10/300 GL; 50 mM HEPES pH 7.5, 2 M NaCl, 1 mM DTT, 5 mM MnCl2, 5 mM MgCl2, 10% glycerol; fractions on reducing SDS-PAGE
[4] = target: the molecule itself; assay: SEC; aRNase J-StrepII purified by Strep-Tactin from H. volcanii HS01-pJAM1406 (ΔrecJ3); Superdex 200 Increase 10/300 GL; 50 mM HEPES pH 7.5, 2 M NaCl, 1 mM DTT, 5 mM MnCl2, 10% glycerol; column calibrated with mass standards

RecJ4 (natural protein) showed a stoichiometry N (RecJ4 per aRNase J) [1] of 2, a stoichiometry N (RecJ4 per RecJ3) [2] of 1 and a stoichiometry N (RecJ4 per RecJ3) [3] of 1.

B1: aRNase J-StrepII (natural protein, H. volcanii, UniProt D4GW49 1-450, looked up)
chain: MEIEIATIGGYEEVGRQMTAVRAGDDVVVFDMGLNLSQVLIHDNVETEKMHSLDLIDMGAIPDDRVMSDLEGDVQAIVPTHGHLDHIGAISKLAHRYDAPVVATPFTIELVKQQIEGENKFNVNNDLVKMEAGETMSIGDSGNVELEFVHVTHSIIDAINPVVHTPEGAVVYGLDKRMDHSPVLEDPIDMKRFREIGREGNGVLAYIEDCTNAGRKGRTPSESVARRHLKDVMTSVEDYDGGIVATTFSSHISRVSSLVEFAKDIGRQPVLLGRSMEKYSGTAERLGFVDLPDDLGMYGHRKSVDRTFKRIMKEGKENYLPIVTGHQGEPRAMLTRMGRGETPYEIDDGDKVIFSARVIPEPTNEGQRYQSERLLRMQGARIYDEIHVSGHLREEGHYEMLQALQPQHVIPAHQNLKGFAPYVDLAESQGYALGRDLHVTRNGNMIQLVE
notes: archaeal RNase J of Haloferax volcanii, amplified with primers HVO_2724 NdeI and HVO_2724 KpnI; A homodimer when purified from the ΔrecJ3 mutant (SEC); in the RecJ3/4-aRNase J complex the stoichiometry is 2:2:1; also called aRNase J with a C-terminal StrepII tag; aRNase J homodimer; source: H. volcanii H26- or HS01-pJAM1406, HJ02-, HJ04- or HJ07-pJAM4252, in lysate; purified (Strep-Tactin, SEC); …
B1 was tested, and the “stoichiometry N” value [4] was 2.
